Source: the DeepSol protein solubility set

Assay: soluble on expression in E. coli; label from the status in PepcDB or PDB records

Sequence: MGSDKIHHHHHHMKTLKNLITSKHQTKASRFLGYLMPFDDFEKTLLQLKKEHFKAAHFVTAFRYSLEGKITEGFSDDGEPKGSSGMPMLSVLRREDLINIGLVSVRYFGGTLLGVGGLMKAYAKSALLCVENAQKEDALKDFVELETLSAHYSYKELDALQREIKKFSLQLSKKNFSNQSVEVEISGTRENLQAFLQQNKIN
- soluble on expression in E. coli: not soluble

Sequence: MSRTYDLASDVIRRVYERRIDAPAILDSASEFPNAAKFTNAWRDIRDEALGVHLGKVPRFHDIMPEQADISANDGLDWRMFVLKAYDMAVPENLARMPVLSRLLAECPEVKSAAISFLAPRKHIPSHRGPFRGIMRFHLGLVIPRQADGRPATIMMIDHQEKRITDGEGMLWDDTYPHEVMNNADETRIALLLDVWRPGMPWDMEMLSRLIVRGVQAGMRRRGVSFSGLEHHHHHH
- soluble on expression in E. coli: soluble

Sequence: MGSDKIHHHHHHMRYIDLAEMCIADISSGKLVKNSRMPSLRNFRQQHSISMTTALNCYQYLESLGWILARPQSGYFVCGQRMANEKPELVAFKSIMTDPKLPVVKPYYQHGNSSACAIDSAHNTSANHSVYQPANKDIVGPLGVARISTDFIPLDKLQNSFRRALKRQGSNISFYPDIQGEKILRDTLSSHFKSYDFHIPSDELLITNGCMDAIQTAIEICTDFGDAVAISSPCFNGILDMLAALGRKVVEIPSTEQGIDLVQLEQHMKSNQIKAGLFCTSHMNPQGISMTALQKQHLVNLAQTYKIPIIEDDVYIELAHGKVMPLPAKHWDKHGYILWCGSVSKTIAAGYRLGWCWPGRFTEQYLQKRKYCNQGVSSPVQLGLADFISNGDYAKHLKKLRVAIQQHTLSYQRYLTKNLPVASKISDPSGGFVLWIQVPNLNGRKLLALATEGNIDIRIGEQFSTRDLYQDYFRVNTGFMITEGNDKDTREEVDSQINKLMKLVKVASSERI
- soluble on expression in E. coli: not soluble

Sequence: MTIREEGLIVKDQVLSCYLKGKRCLFVIVKILKDSSNSFLCTVQNKNGDQYVKKWFRKHENNEKLGRPTFKEVEKDWKENKESFMYPNVKALY
- soluble on expression in E. coli: not soluble

Sequence: MPRLVVNSIYASGAQYQGSSSKLYVNVSNLGTENAYNVLIQVYVNGKVYGSTTVSEIKAGASDNVSINWVPPTSGKVSVYATASVNSEPRSFVTAGALTQTVSVNPLEHHHHHH
- soluble on expression in E. coli: not soluble

Sequence: MSLFFTFMRGVVRVILFVINGNAHYENKEKLPKDQNYVLVAPHRTWWEPLYLAVAGSPKKFSFMAKKELFKNPVLRFILKHANAFPVDREKPGPSAIKTPVKILKNSDLSLIMFPSGTRHSSELKGGVALIAKMGRVPIVPSVYQGPLTLKELFKRKKVTVRFGEPIDISDIKKMDKDGLAEVERRMQEAFDQLDKEIDPTFKYESTEEGHHHHHH
- soluble on expression in E. coli: soluble

Sequence: RLQPIIVPGWQGSGPGHWQTHWSRTLPHAVRLQQRDWHQPQRAEWVAALAAAVDAAPTPVLLVAHSLGCLVSAALPIALRAKVAGALLVAPADVERPGAPAAIAAFGPVPRQSLPYQSVVIASDDDPYCRLERARQFAQDWGSRLVVLQGAGHINADSQLGAWPQGLKQLAALRRRACW
- soluble on expression in E. coli: not soluble

Sequence: MEDPVTGPEEVSGQEQGSLTVQCRYTSGWKDYKKYWCQGVPQRSCKTLVETDASEQLVKKNRVSIRDNQRDFIFTVTMEDLRMSDAGIYWCGITKGGLDPMFKVTVNIGPVPT
- soluble on expression in E. coli: soluble

Sequence: AHHHHHHGSIIRGDEPEQKALLRKLYRAGNYFMMGDEAIAYGAIFAGCRFYAGYPITPSSEIAETMARELPKVGGYYLQMEDEIASIAAIIGASWTGLKAMTATSGPGFSLMQENIGYAVMTETPVVIVDVQRSGPSTGQATKGAQGDFFQARWGTHGDHPIIAVSPISVEDAFWETIRAFNIAEQLRTPVIVLFDGILGHTREQIRIPDPDEVEISYRKLPRNEEEAKLPFGDPHGDGVPPMPIFGKGYFTHVTGSTHKENGLRDVYTPEVHDRLVRRLHKKIEKNRHIYEKYNEYFTDDAEILVVSWGVSARPSLGAVKKAREEGIKAGLFVPKTVHPFPGEKMRELGKKVRAILVPEMNLGQLILEVQRFVNDDVILKGVNKIGGVPITVEEILREIRGVA
- soluble on expression in E. coli: not soluble

Sequence: MLANQIKYVILHLTQSIIEYSMANLNCIKAVLAEKGIMSKWLAKTLKKDPATVSKWCNNHSQPDLYTLARIAEVLDVDIHKLICHTKEE
- soluble on expression in E. coli: not soluble

Sequence: MVQQQQQSQQRMMELHERNDREKLARKTEKEREEERRKQEDDKILQLEKKLEEFQENARFIGDLASNFQTKYQDALNGRIYTLVRGLQDLDRMKGTFSDKKVPLDLLPYLDDGKNPCLYSKHCMEKTLEKNKAVNGKIEIYKKFRAHLMKEFSEEMPDLVMYYRSIREDLDLS
- soluble on expression in E. coli: not soluble
